Assay results published in patent US11319368B2, “Treatment of hepatotoxicity with IL-11 antibody” (Singapore Health Services PTE LTD., priority 2019, dated 2022).

Legend:
[1] = tested on: primary human hepatocytes; assay: IL-11 treatment of primary human hepatocytes: ALT in supernatant, actin stress fibres; assay type: cell-based; conditions: IL-11 0.019-10 ng/ml, 24 h
Procedure: IL-11 mediated hepatocyte cell death was measured by determining the levels of alanine transaminase (ALT) in hepatocyte supernatant after treatment with a range of IL-11 doses (0.019-10 ng/ml). ALT levels were measured using ALT Activity Assay Kit (ab105134, Abcam) according to the manufacturer's protocol. Concurrent number of stress fibres 24 h after IL-11 stimulation was detected by rhodamine-phalloidin staining.

[2] = tested on: human hepatocytes; assay: rhIL11 versus rmIL11 on human hepatocytes; assay type: cell-based; conditions: 10 ng ml^-1
[3] = tested on: AILI; assay: rhIL11 or rmIL11 injection in APAP OD mice; assay type: in vivo, mouse
Procedure: FIGS. 10A to 10L. […] (A, B, K, L) 24 h. […] FC: fold change

[4] = biological target: T1, mIL11Rα1 (Mus musculus, UniProt Q64385); assay: Competition ELISA, biotinylated rmIL11 binding to mIL11Rα1; conditions: two-fold dilutions from 5 μg ml^-1
T1 construct: purchased SinoBiological 50075-M08H
T1 sequence (Q64385 24-432): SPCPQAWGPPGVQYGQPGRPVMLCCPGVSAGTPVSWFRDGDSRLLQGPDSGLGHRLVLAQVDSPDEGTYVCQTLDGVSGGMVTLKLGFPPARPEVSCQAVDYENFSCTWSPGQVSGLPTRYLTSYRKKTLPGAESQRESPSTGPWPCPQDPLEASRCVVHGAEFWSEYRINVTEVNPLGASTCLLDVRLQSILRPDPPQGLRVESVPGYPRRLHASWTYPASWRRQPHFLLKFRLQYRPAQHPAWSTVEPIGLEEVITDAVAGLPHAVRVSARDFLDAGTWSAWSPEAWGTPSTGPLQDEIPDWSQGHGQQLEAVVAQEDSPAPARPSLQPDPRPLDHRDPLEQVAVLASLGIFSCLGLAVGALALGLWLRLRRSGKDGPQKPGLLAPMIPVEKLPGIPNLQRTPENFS
Procedure: Mouse IL11Rα (1 μg ml^−1 in PBS) was coated on a 96-well plate (overnight at 4° C.) and then blocked with blocking buffer (1% BSA in PBS containing 0.05% Tween20). Biotinylated mouse Il11 was prepared using Lightning-Link Rapid Biotin type A kit (Expedeon) according to the manufacturer's instructions. RhIL11 or rmIl11 was two-fold serially diluted in blocking buffer (starting at 5 μg ml^−1) and mixed with 0.01 μg ml^−1 biotinylated mouse IL11. The mixture of biotinylated mouse IL11 and either rhIL11 or rmIL11 was added into the coated plate and incubated for 1 h at RT. Color development was performed by adding Streptavidin-HRP (1:1000 in blocking buffer) and TMB chromogen solution (002023, ThermoFisher Scientific).

[5] = tested on: mouse hepatocytes; assay type: cell-based; conditions: 24 h
Description: Mouse hepatocytes (ABC-TC3928, AcceGen Biotech) were maintained in mouse hepatocyte medium (ABC-TM3928, AcceGen Biotech) supplemented with 1% Penicillin-streptomycin.

[6] = tested on: primary human hepatocytes; assay: IL11 effect on GSH and NOX4 in primary human hepatocytes; assay type: cell-based
[7] = tested on: liver; conditions: single subcutaneous injection 500 μg kg^-1
Procedure: (A) Effect of recombinant human IL11 (rhIL11, 10 ng ml^−1) or recombinant mouse IL11 (rmIL11, 10 ng ml^−1) on ERK, JNK and CASP3 activation status in mouse hepatocytes. (B) ALT levels in mouse hepatocyte supernatant following stimulation by rmIL11 (10 ng ml^−1) or by increasing doses of rhIL11 (1, 5, 10, 15 and 20 ng ml^−1). (C) Schematic of mice receiving a single subcutaneous injection of either saline, rhIL11, or rmIl11 (500 μg kg^−1). (D) Western blot analysis of hepatic p-ERK, p-JNK, and Cl. […] Dose-dependent inhibition effect of rhIL11 on rmIL11-induced (K) ALT secretion and (L) CASP3 activation by mouse hepatocytes. (A, B, K, L) 24 h. (B, K) Data are shown as mean±SD; (E, G) Data are shown as box-and-whisker with median (middle line), 25th-75th percentiles (box), and minimum-maximum values (whiskers). (B, K) Two-tailed, Tukey-corrected Student's t-test; (E) two-tailed Student's t-test; (G) two-tailed Dunnett's test.
The levels of alanine transaminase (ALT) or aspartate aminotransferase (AST) in mouse serum and hepatocyte supernatant were measured using ALT Activity (ab105134, Abcam) or AST (ab105135, Abcam) Assay Kits. […] All colorimetric assays were performed according to the manufacturer's protocol.
Western blots were carried out from hepatocyte and liver tissue lysates. […] Protein concentrations were determined by Bradford assay (Bio-Rad). […]

[8] = biological target: T2, hIL11Rα (Homo sapiens, UniProt Q14626); conditions: rhIL11:hIL11Rα, reported previously, reconfirmed; cited from earlier work
T2 construct: purchased SinoBiological 10252-H08H
T2 sequence (Q14626 23-422): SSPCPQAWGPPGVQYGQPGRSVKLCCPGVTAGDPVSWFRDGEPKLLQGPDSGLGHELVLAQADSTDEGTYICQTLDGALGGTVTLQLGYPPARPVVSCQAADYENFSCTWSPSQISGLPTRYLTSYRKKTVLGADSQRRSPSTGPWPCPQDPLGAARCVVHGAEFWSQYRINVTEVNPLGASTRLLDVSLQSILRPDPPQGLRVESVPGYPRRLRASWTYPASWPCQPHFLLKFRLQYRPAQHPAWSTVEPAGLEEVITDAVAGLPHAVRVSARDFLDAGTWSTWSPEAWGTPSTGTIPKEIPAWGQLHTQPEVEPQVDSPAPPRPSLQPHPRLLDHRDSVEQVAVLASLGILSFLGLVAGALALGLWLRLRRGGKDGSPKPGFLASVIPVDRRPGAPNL

[9] = biological target: IL-11Rα; conditions: low affinity; cited from earlier work
[10] = tested on: mouse livers; conditions: 500 μg/kg, IV prior to WI/Rp injury; cited from earlier work
[11] = tested on: IRI; conditions: 500 μg/kg, IP one hour prior to IRI; cited from earlier work
[12] = tested on: LPS-induced hepatic injury (acute endotoxemia); conditions: 150 μg/kg, IP; cited from earlier work
[13] = tested on: early intestinal radiation injury; conditions: 2 mg/kg/d from 2 days prior until 2 weeks after irradiation; cited from earlier work
[14] = tested on: epithelial cell integrity; conditions: oral 0.5 mg/kg/day, 12 days; cited from earlier work
[15] = tested on: small intestinal mucosa; conditions: 250 μg/kg; cited from earlier work
[16] = tested on: clonogenic cells in intestinal crypts; conditions: 100 μg/kg, SC prior to and after cytotoxic exposure; cited from earlier work
[17] = tested on: heart; conditions: 8 μg/kg, IV 24 hours after ligation, then every 24 hours for 4 days; cited from earlier work
[18] = tested on: activated murine CD4+ve T-cells; conditions: 1-500 ng/ml; cited from earlier work
[19] = tested on: GVHD; conditions: 250 μg/kg, SC, twice daily; cited from earlier work
[20] = tested on: murine primary macrophages; conditions: 10-100 ng/ml; cited from earlier work
[21] = tested on: collagen-induced arthritis; conditions: 0.3-100 μg/mouse/day, IP, 10 days; cited from earlier work
[22] = subcutaneous injection, APAP OD

B1: rhIL11: Recombinant human IL11 (UniProtKB:P20809, Genscript) (protein)
chain: PGPPPGPPRVSPDPRAELDSTVLLTRSLLADTRQLAAQLRDKFPADGDHNLDSLPTLAMSAGALGALQLPGVLTRLRADLLSYLRHVQWLRRAGGSSLKTLEPELGTLQARLDRLLRRLQLLMSRLALPQPPPDPPAPPLAPPSSAWGGIRAAHAILGGLHLTLDWAVRGLLLLKTRL
- actin stress fibres in hepatocytes [1]: progressively stimulated an increase in actin stress fibres
- alanine aminotransferase (ALT) in hepatocyte supernatant (hepatocyte cell death) [1]: progressive increase in alanine aminotransferase (ALT)
- ERK and JNK signaling and hepatocyte death [2]: stimulated ERK and JNK signaling and hepatocyte death
- hepatic ERK and JNK activation ([3]; 24 h following APAP administration): reduction in hepatic ERK and JNK activation
- hepatic GSH levels after APAP ([3]; APAP injury): restored APAP-induced GSH depletion
- reduction of serum ALT (severity of AILI) [3, 22]: 52%
- reduction of serum AST (severity of AILI) [3, 22]: 39%
- competition with rmIL11 for binding to mIL11Rα1 [4]: competed with rmIL11 for binding to mIL11Rα1
- GSH levels in rmIL11 stimulated mouse cells [5]: clear, dose-dependent effects of rhIL11 in restoring GSH levels
- GSH depletion ([6]; dose range and time course): stimulated dose-dependent GSH depletion
- NOX4 expression ([6]; rhIL11 10 ng ml^-1): NOX4 upregulation
- hepatic ERK and JNK phosphorylation [7]: no effect on ERK or JNK phosphorylation
- Kd [8]: 50 nM
- Kd [9]: ~10 nM
- protection from WI/Rp injury [10]: injury protects mouse livers. In vitro, pre-treatment with rhIL11
- hepatoprotection in IRI [11]: Hepatoprotective effects of rhIL11 in mice subjected to a single
- LPS-induced hepatic injury [12]: significant protective role in LPS-induced hepatic injury (acute
- early intestinal radiation injury [13]: The authors conclude that IL11 ameliorates early intestinal
- epithelial cell integrity during cyclophosphamide chemotherapy [14]: The authors suggest that IL11 maintains epithelial cell integrity
- recovery from chemotherapy and radiation-induced mucosal damage [15]: Administration of rhIL11 (250 μg/kg) promotes recovery from
- clonogenic cells in intestinal crypts [16]: cytotoxic exposure, protects clonogenic cells in intestinal crypts
- post-MI scar volume [17]: then consecutively every 24 hours for 4 days reduces post-MI
- immune response of CD4+ve T-cells [18]: CD4+ve T-cells and modulates, not represses, the immune
- Graft-vs-Host-Disease [19]: The authors conclude that IL11 prevents Graft-vs-Host-Disease
- secretion of pro-inflammatory cytokines by macrophages [20]: The authors conclude that IL11 inhibits the secretion of pro-
- inflammation [21]: days) reduces inflammation in a murine model of collagen-
